Where “and” joins values, the source holds several entries; their conditions need not be identical. Identical values can stand only once.

The test system of the series is Bacillus subtilis DB104 (SP-AmyQ fusion secretion). The series is described as follows: AmyQ secretion efficiency, weighted average sort bin (1 = best secretion, 10 = worst) (bin number (weighted average, 1-10)); higher = lower secretion efficiency. An outline of the steps:
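The secretion score gives the average bin number weighted by read frequency and normalised to beads per bin, with low-abundance sequences excluded. Bins were 10 equally populated green/red fluorescence ratio fractions of occupied ~65 nL alginate beads, sorted by large-particle flow cytometry. The beads held fluorescein-starch and about 0.3 cells each of an amyE-integrated B. subtilis DB104 library fusing designed signal peptides to mature AmyQ, and they were grown about 13 h at room temperature and stained with nile red before sorting and Illumina sequencing.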

The sequence MTKLKMLSMLRRKKASLFIFSSQALAVQY displayed an AmyQ secretion efficiency of 6.44.
The result for MTKLKMLSMLTVMIASLFIFSKKRRRKALAVQY reads 7.47.
The result for MTKLKMLSMLTVMIASLFIFSKRRALAVQY reads 6.11; that for MTKLKMLSMLTVMIASLFIFSSQALAKRK, 4.03; that for MTKLKMLSMLTVMIASLFIFSSQALDVQY, 6.18.
In the case of MTKLKMLSMLTVMIASLFIFSSQALFVQY, the AmyQ secretion efficiency worked out at 7.31.
MTKLKMLSMLTVMIASLFIFSSQALGVQY had an AmyQ secretion efficiency of 3.68.
The result for MTKLKMLSMLTVMIASLFIFSSQALLVQY reads 6.07.
The result for MTKLKMLSMLTVMIASLFIFSSQALMVQY reads 5.71; that for MTKLKMLSMLTVMIASLFIFSSQALSVQY, 2.56; that for MTKLKMLSMLTVMIASLFIFSSQALVVQY, 5.36.
Next, MTKLKMLSMLTVMIASLFIFSSQCLAVQY: 2.27; MTKLKMLSMLTVMIASLFIFSSQGLAVQY: 2.52; MTKLKMLSMLTVMIASLFIFSSQILAVQY: 6.11.
Turning to MTKLKMLSMLTVMIASLFIFSSQMLAVQY, the AmyQ secretion efficiency was found to be 4.6.
The result for MTKLKMLSMLTVMIASLFIFSSQQLAVQY reads 6.53; that for MTKLKMLSMLTVMIASLFIFSSQTLAVQY, 2.28.
Next, MTKLKMLSMRSRMIASLFIFSSQALAVQY: 3.8.
The result for MTKRGIQAFAGGIILATAVLAAVFKKTKKDQAAAV reads 7.92; that for MTKRGIQAFAGGIILATAVLAAVFRLTTFDQAAAV, 5.37.
In turn, MTKRGIQAFAGGIILATAVLAAVFYLTDEDQAAAD gave an AmyQ secretion efficiency of 6.91.
The result for MTKRGIQAFAGGIILATAVLAAVFYLTDEDQAAAR reads 4.37.
The result for MTKRGIQAFAGGIILATAVLAAVFYLTDEDQAAAV reads 5.97 and 6.45.
Turning to MTKRGIQAFAGGIILATYLTDEDQAAAV, the AmyQ secretion efficiency was 7.21.
In turn, MTKRGIQAFAGGIYLTDEDQAAAV displayed an AmyQ secretion efficiency of 7.17.
MTKRITYSLLALLAVVAFAFTDSSKAKAAEA yielded an AmyQ secretion efficiency of 2.05.
Regarding “MTKRLSTTLTFLGIQAFAGGIILATAVLAAVFYLTDEDQAAAV”, the AmyQ secretion efficiency turned out to be 6.23.
The result for MTKRYGQTKTYKGTTTTAVLAAVFYLTDEDQAAAV reads 6.8.
Next, MTKTIFAFLTGLMMFGTITAASASPD: 3.99; MTKVMLATALFLGLTPAGANAADL: 5.8.
Sequence MTKWIVLFLVLIAAAISIFVYVSTGSEK gave an AmyQ secretion efficiency of 2.48.
The result for MTKYTVIASILLSFLSVLSGGHHESKAFPV reads 6.55; that for MTLALRVSALTPSTTLAITAKAKEL, 7.08.
Next, MTLGGSVSMFLVALTMCGGLFVTPAKAVKT: 3.81; MTLSVIIAGVLTVAAAAMTAKMYATAKGN: 6.67; MTLTSGFLLLSCLALSTVFVATTIANAPTH: 5.02.
Next, MTLWMTSTLLVVLFTIVTFGLVSPPAALMADKP: 5.58.
The sequence MTMKLKWLSFLLGFIILLFLFKYQFSNNDS had an AmyQ secretion efficiency of 7.21.
MTMLLAAGIIGLLTVSIASPSFAAEK yielded an AmyQ secretion efficiency of 5.35.
The result for MTMLRKIIGWILLLCIIASFIVTPLFAFTVIASGKEV reads 7.88; that for MTMLRKIIGWILLLCIIATPLFAFTVIASGKEV, 5.08.
Next, MTMLRKIIGWILLLCIIDDDEEDVIASGKEV: 5.3; MTMLRKIIGWILLLCIIDDEAFTVIASGKEV: 5.2.
The sequence MTMLRKIIGWILLLCIIKKKAFTVIASGKEV displayed an AmyQ secretion efficiency of 7.58.

The record behind these values is the supplement of paper PMC9942255.
